From patent US20220332804A1 (CSL INNOVATION, published 2022) come the findings set out here.

Assay [1] concerns the target T1, human complement C2 (human, UniProt P06681 21-752).
T1 construct: Recombinant full-length human C2 with C-terminal 8x His tag, purified from Expi293F supernatant; also called human C2; huC2
T1 sequence: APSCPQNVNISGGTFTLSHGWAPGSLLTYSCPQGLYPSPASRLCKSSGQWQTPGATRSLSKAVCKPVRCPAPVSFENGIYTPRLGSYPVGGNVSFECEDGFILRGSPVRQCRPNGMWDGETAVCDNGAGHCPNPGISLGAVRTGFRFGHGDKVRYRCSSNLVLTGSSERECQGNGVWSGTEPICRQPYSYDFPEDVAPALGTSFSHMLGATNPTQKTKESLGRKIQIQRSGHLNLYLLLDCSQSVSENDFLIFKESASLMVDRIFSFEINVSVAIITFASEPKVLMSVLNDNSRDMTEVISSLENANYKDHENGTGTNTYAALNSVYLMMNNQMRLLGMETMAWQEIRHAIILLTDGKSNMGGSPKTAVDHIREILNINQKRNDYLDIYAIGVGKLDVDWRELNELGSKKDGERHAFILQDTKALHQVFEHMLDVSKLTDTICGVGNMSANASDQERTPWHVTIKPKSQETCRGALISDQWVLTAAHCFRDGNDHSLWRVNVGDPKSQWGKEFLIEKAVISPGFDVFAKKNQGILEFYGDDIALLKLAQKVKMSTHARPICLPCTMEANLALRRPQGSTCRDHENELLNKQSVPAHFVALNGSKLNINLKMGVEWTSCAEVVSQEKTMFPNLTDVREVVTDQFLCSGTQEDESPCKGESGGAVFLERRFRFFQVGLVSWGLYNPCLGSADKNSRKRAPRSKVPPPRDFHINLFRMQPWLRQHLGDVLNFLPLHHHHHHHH
Nature of the assay: SPR, mAb captured, C2 analyte, MHAs buffer, pH 5.8, steady state.
Description: (§1) Surface plasmon resonance (SPR, Biacore) was used for all binding affinity analyses. In brief, goat anti-human IgG was directly immobilised onto the carboxymethyl dextran surface of CM5 sensorchips to approximately 12,000 RU using standard NHS/EDC chemistry at pH 5. The immobilised antibody surface was pre-conditioned with ten injections of polyclonal human IgG (Privigen 60 s) prepared at 1 μg/mL. Ligands (anti-C2 mAbs) were captured at the beginning of each cycle as described below. An adjacent spot or flow cell in which only Polyclonal IgG was capture was used as a reference surface. The goat anti-human IgG Fc antibody surface was regenerate in 100 mM H3PO4, injected for 45 seconds at the end of each cycle. Experiments were performed at 37° C. and the flow rate of each experiment was kept constant at 30 μL/min.
(§2) This buffer contains ammonium sulfate instead of sodium chloride.

The target of assay [2] is T2, cynomolgus monkey C2 (cynomolgus monkey, UniProt G8F3W0 21-752).
T2 sequence: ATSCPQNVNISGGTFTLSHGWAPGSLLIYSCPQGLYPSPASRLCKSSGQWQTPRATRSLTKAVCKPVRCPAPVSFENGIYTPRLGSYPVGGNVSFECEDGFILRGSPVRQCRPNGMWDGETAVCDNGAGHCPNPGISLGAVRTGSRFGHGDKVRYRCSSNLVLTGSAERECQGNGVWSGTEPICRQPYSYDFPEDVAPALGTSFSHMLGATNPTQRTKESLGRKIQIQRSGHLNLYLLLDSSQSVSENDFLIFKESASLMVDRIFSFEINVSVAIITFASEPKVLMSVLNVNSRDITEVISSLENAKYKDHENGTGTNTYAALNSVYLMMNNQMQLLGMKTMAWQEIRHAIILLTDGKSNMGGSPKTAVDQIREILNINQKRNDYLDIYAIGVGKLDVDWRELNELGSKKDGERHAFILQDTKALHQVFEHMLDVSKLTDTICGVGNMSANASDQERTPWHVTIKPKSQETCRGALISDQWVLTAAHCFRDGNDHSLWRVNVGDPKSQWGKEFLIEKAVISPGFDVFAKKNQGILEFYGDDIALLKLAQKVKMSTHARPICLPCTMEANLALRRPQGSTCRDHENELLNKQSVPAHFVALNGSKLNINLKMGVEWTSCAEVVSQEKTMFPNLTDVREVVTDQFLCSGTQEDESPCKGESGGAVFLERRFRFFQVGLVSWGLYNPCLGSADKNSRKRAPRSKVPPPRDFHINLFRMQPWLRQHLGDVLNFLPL
The assay is described as follows: cell-based or functional assay.

For assay [3], the target named is T1, human complement C2. The assay is described as follows: cell-based or functional assay.
A further assay deals with T3, mouse C2 (mouse, UniProt P21180 19-760, limits assumed).
T3 sequence (looked up): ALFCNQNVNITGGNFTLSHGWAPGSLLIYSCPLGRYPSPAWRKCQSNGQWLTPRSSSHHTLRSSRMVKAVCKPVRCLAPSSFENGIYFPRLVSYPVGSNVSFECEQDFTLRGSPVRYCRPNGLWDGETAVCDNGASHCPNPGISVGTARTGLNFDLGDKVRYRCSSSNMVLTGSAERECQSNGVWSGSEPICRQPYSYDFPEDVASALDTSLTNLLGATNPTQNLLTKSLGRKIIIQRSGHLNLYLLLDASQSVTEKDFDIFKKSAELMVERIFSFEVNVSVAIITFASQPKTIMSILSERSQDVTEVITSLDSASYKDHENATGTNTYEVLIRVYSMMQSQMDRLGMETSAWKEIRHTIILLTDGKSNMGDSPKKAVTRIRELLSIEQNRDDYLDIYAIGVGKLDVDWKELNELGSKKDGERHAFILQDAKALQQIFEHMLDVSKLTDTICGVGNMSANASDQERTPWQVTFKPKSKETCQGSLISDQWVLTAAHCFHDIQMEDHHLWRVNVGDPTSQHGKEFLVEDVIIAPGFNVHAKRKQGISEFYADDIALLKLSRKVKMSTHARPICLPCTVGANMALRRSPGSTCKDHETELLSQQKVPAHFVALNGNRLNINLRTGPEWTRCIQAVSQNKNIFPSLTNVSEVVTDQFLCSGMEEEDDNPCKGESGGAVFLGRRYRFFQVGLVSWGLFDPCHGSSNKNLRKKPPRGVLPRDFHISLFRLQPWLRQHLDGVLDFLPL
The assay is described as follows: SPR, mouse C2, pH 7.3; VWB = very weak binding, KD not determined.

Assay [4] concerns the target T1, human complement C2. The assay is described as follows: cell-based or functional assay. The source holds these as a separate data set.
The target of assay [5] is T1, human complement C2. Nature of the assay: SPR, mAb captured, C2 analyte, HBS-EP, pH 6.0.
Description: as §1
(§3) The pH dependent anti-C2 antibodies and their germlined versions were tested for their affinity to C2 at pH 7.3 (neutral pH) and pH 6.0 (early endosome pH) using the SPR methods described above in HBS-EP buffer.
Assay [6] concerns the target T2, cynomolgus monkey C2. Nature of the assay: cell-based or functional assay. The source holds these as a separate data set.
Assay [7] addresses T1, human complement C2. The assay is described as follows: SPR, mAb captured, C2 analyte, HBS-EP, pH 7.3.
Description: as §1, §3
Assay [8] concerns the target T1, human complement C2. Nature of the assay: SPR, mAb captured, C2 analyte, MHAs buffer, pH 6.0, steady state.
Description: as §1, §2
Assay [9] has as its target T2, cynomolgus monkey C2. Nature of the assay: SPR, mAb captured, cyno C2 analyte, pH 7.3.
For assay [10], the target named is T2, cynomolgus monkey C2. The assay is described as follows: SPR, mAb captured, cyno C2 analyte, pH 6.0.
Description: as §1
In addition to human C2, the pH dependent anti-C2 antibodies were also tested for their ability to bind to C2 from other mammalian species using the SPR methods described above in order to identify suitable surrogate species for in vivo testing. The antibodies were tested for binding at neutral pH against C2 from cynomolgus monkeys, mice, dogs, rabbits, rats, pigs, and sheep.
The target of assay [11] is T1, human complement C2. Nature of the assay: SPR, mAb captured, C2 analyte, MHAs buffer, pH 7.3.
Description: as §1, §2
The target of assay [12] is T1, human complement C2. The assay is described as follows: SPR, mAb captured, huC2 analyte, pH 6.
For assay [13], the target named is T1, human complement C2. The assay is described as follows: SPR, mAb captured, huC2 analyte, neutral pH; pH 7.

B1: RF16-242G (antibody, V domains shown)
VH: EVQLVQSGAEVKKPGESLKISCKGSGYSFTSYWIGWVRQMPGKGLEWMGIIYPGDSDTRYSPSFQGQVTISADKSISTAYLQWSSLKASDTAMYYCARRGHYGDYFDYWGQGTLVTVSS
VL: SYELTQPPSVSVSPGQTARITCSGDALPKKYAYWYQQKSGQAPVLVIYEDRRRPSGIPERFSGSSSGTMATLTISGAQVEDEADYYCYSRDRAGNQRVFGGGTQLTVLG
notes: Germlined version of RF16-242
As for B1, the dissociation constant Kd with human complement C2 [1] was found to be 47000 nM; with human complement C2 [5], 14 nM; with human complement C2 [7], 6.7 nM; in the assay with human complement C2 [8], 12000 nM; in the assay with cynomolgus monkey C2 [9], 4.4 nM; with cynomolgus monkey C2 [10], 132 nM. This molecule displayed a Kd with human complement C2 [11] of 558 nM. Moreover, the “IC50, inhibition of cyno classical pathway (hemolysis assay)” value with cynomolgus monkey C2 [2] amounted to 302 nM. In addition, the “IC50, inhibition of human classical pathway (hemolysis assay)” value in the assay with human complement C2 [3] was found to be 80.3 nM. Further, the binding result in the assay with mouse C2 is “binds”. In addition, the “IC50, inhibition of human classical complement pathway (Wieslab assay)” value with human complement C2 [4] was determined as 26.3 nM. The “IC50, inhibition of human lectin complement pathway (Wieslab assay)” value with human complement C2 [4] came out at 3.19 nM. In the assay with cynomolgus monkey C2 [6], the “IC50, inhibition of cynomolgus classical complement pathway (Wieslab assay)” value worked out at 19.3 nM. The “IC50, inhibition of cynomolgus lectin complement pathway (Wieslab assay)” value with cynomolgus monkey C2 [6] amounted to 275 nM.

B2: RF16-226 YEY (antibody, human IgG4 S228P, lambda)
heavy: EVQLVQSGAEVKKPGESLKISCKGSGYSFTSYWIGWVRQMPGKGLEWMGIIYPGDSDTRYSPSFQGQVTISADKSISTAYLQWSSLKASDTAMYYCARRFSYSSGWDMWGQGTLVTVSSASTKGPSVFPLAPCSRSTSESTAALGCLVKDYFPEPVTVSWNSGALTSGVHTFPAVLQSSGLYSLSSVVTVPSSSLGTKTYTCNVDHKPSNTKVDKRVESKYGPPCPPCPAPEFLGGPSVFLFPPKPKDTLYISRTPEVTCVVVDVSQEDPEVQFNWYVDGVEVHEAKTKPREEQFNSTYRVVSVLTVLHQDWLNGKEYKCKVSNKGLPSSIEKTISKAKGQPREPQVYTLPPSQEEMTKNQVSLTCLVKGFYPSDIAVEWESNGQPENNYKTTPPVLDSDGSFFLYSRLTVDKSRWQEGNVFSCSVMHEALHYHYTQKSLSLSLGK
light: SYELTQPPSVSVSPGQTARITCSGDALTSKYVAWYQQKSGLAPLLVIYEDTRRPSGIPAKFSGSSSGSVATLTISGAHGDDEADYYCYSTDASGHQRVFGGGTKLTVLSQPKAAPSVTLFPPSSEELQANKATLVCLISDFYPGAVTVAWKADGSPVKAGVETTKPSKQSNNKYAASSYLSLTPEQWKSHRSYSCQVTHEGSTVEKTVAPTECS
With B2, the Kd with human complement C2 [12] is about 80 nM; with human complement C2 [13], about 9 nM.

B3: RF16-226G (antibody)
heavy: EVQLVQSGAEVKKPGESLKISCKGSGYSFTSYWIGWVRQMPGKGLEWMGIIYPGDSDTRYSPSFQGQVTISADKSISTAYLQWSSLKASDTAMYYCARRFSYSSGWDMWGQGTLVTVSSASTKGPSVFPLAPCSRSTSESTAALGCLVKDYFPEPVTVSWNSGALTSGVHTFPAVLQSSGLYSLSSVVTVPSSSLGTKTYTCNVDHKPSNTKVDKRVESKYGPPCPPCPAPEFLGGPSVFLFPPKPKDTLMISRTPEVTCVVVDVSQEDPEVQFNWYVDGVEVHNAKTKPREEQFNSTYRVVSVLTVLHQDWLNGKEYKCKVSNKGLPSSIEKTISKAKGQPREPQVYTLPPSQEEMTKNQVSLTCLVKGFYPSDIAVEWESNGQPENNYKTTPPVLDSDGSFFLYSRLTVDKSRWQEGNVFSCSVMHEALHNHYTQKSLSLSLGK
light: SYELTQPPSVSVSPGQTARITCSGDALTSKYVAWYQQKSGQAPVLVIYEDTRRPSGIPERFSGSSSGTMATLTISGAQVEDEADYYCYSTDASGHQRVFGGGTKLTVLGQPKAAPSVTLFPPSSEELQANKATLVCLISDFYPGAVTVAWKADSSPVKAGVETTTPSKQSNNKYAASSYLSLTPEQWKSHRSYSCQVTHEGSTVEKTVAPTECS
Turning to B3, the Kd with human complement C2 [1] stood at 4060 nM; with human complement C2 [5], 128 nM; in the assay with human complement C2 [7], 10 nM; with human complement C2 [8] it was 1900 nM; with cynomolgus monkey C2 [9] it was 4.7 nM; with cynomolgus monkey C2 [10], 114 nM. This molecule returned a Kd in the assay with human complement C2 [11] of 45.6 nM. In the assay with cynomolgus monkey C2 [2], the “IC50, inhibition of cyno classical pathway (hemolysis assay), mean of three experiments” value stood at 176 nM. The “IC50, inhibition of human classical pathway (hemolysis assay)” value with human complement C2 [3] amounted to 230 nM. Also, the binding result with mouse C2 is reported as “binds”. Besides, the “IC50, inhibition of human classical complement pathway (Wieslab assay)” value with human complement C2 [4] was 5.58 nM. Also, the “IC50, inhibition of human lectin complement pathway (Wieslab assay)” value in the assay with human complement C2 [4] turned out to be 3.25 nM. Moreover, the “IC50, inhibition of cynomolgus classical complement pathway (Wieslab assay)” value with cynomolgus monkey C2 [6] was determined as 8.24 nM. Moreover, the “IC50, inhibition of cynomolgus lectin complement pathway (Wieslab assay)” value in the assay with cynomolgus monkey C2 [6] is 66.5 nM.

B4: RF16-226 YPY (antibody, human IgG4 S228P, lambda)
heavy: EVQLVQSGAEVKKPGESLKISCKGSGYSFTSYWIGWVRQMPGKGLEWMGIIYPGDSDTRYSPSFQGQVTISADKSISTAYLQWSSLKASDTAMYYCARRFSYSSGWDMWGQGTLVTVSSASTKGPSVFPLAPCSRSTSESTAALGCLVKDYFPEPVTVSWNSGALTSGVHTFPAVLQSSGLYSLSSVVTVPSSSLGTKTYTCNVDHKPSNTKVDKRVESKYGPPCPPCPAPEFLGGPSVFLFPPKPKDTLYISRTPEVTCVVVDVSQEDPEVQFNWYVDGVEVHNAKTKPREEQFNSTYRVVSVLTPLHQDWLNGKEYKCKVSNKGLPSSIEKTISKAKGQPREPQVYTLPPSQEEMTKNQVSLTCLVKGFYPSDIAVEWESNGQPENNYKTTPPVLDSDGSFFLYSRLTVDKSRWQEGNVFSCSVMHEALHYHYTQKSLSLSLGK
light: SYELTQPPSVSVSPGQTARITCSGDALTSKYVAWYQQKSGLAPLLVIYEDTRRPSGIPAKFSGSSSGSVATLTISGAHGDDEADYYCYSTDASGHQRVFGGGTKLTVLSQPKAAPSVTLFPPSSEELQANKATLVCLISDFYPGAVTVAWKADGSPVKAGVETTKPSKQSNNKYAASSYLSLTPEQWKSHRSYSCQVTHEGSTVEKTVAPTECS
Consider B4, for which the Kd with human complement C2 [12] was about 80 nM; in the assay with human complement C2 [13], about 9 nM.
